Test results published in the supplement of paper PMC10598134.
± gives the standard deviation.

Test: collision cross section of unmodified peptide (TIMS, N2, iRT-aligned); higher = larger / more extended gas-phase ion
Outline: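 Synthetic peptide pools (~100 fmol/µL in 2% acetonitrile/0.1% formic acid, iRT standard spiked 1:40) were separated on a 120-min nanoflow C18 gradient at 60 °C. They were analysed on a timsTOF Pro/HT (dda-PASEF, nitrogen, ~2.4 mbar) and identified with MaxQuant. 1/K0 was calibrated with three reference ions and aligned run-wise to the median iRT peptide deviation. Collision cross section came from the Mason-Schamp equation, averaging 1–3 technical replicates of the most abundant feature per charge state.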

## VTPHPSPRGSPLPTPK
Charge state: 2
  collision cross section: 427.24 Å²
Charge state: 3
  collision cross section: 550.88 ± 0.55 Å²

## GFPGAPGLPGLKGHR
Charge state: 3
  collision cross section: 475.59 ± 1.2 Å²

## ANEKTESSSAQQVAVSR
Charge state: 2
  collision cross section: 440.94 ± 1.7 Å²
Charge state: 3
  collision cross section: 497.75 ± 27 Å²

## GNDISSGTVLSDYVGSGPPK
Charge state: 2
  collision cross section: 464.77 ± 1 Å²

## GTITVSAQELKDNR
Charge state: 2
  collision cross section: 437.3 ± 1.6 Å²
Charge state: 3
  collision cross section: 507.47 ± 4.6 Å²

## VGVEVPDVNIEGPEGKLK
Charge state: 2
  collision cross section: 456.21 ± 2.8 Å²
Charge state: 3
  collision cross section: 537.32 ± 2.3 Å²

## THLGEALAPLSK
Charge state: 2
  collision cross section: 380.02 ± 0.67 Å²
Charge state: 3
  collision cross section: 462.22 ± 1 Å²

## GSIGFPGFPGANGEKGGR
Charge state: 3
  collision cross section: 519.37 ± 1.2 Å²

## FPGVGVLPGVPTGAGVKPK
Charge state: 2
  collision cross section: 467.47 ± 1.8 Å²
Charge state: 3
  collision cross section: 560.63 ± 0.35 Å²

## LLEQKTQESQK
Charge state: 2
  collision cross section: 394.71 ± 1.6 Å²
Charge state: 3
  collision cross section: 453.32 ± 3.2 Å²

## GQKGEPGLPGHPGK
Charge state: 2
  collision cross section: 378.64 ± 1.5 Å²
Charge state: 3
  collision cross section: 470.96 ± 1.2 Å²

## IVSGKDYNVTANSK
Charge state: 2
  collision cross section: 405.96 ± 2.6 Å²
Charge state: 3
  collision cross section: 485.92 ± 5.8 Å²

## APIISGVTK
Charge state: 2
  collision cross section: 322.45 ± 0.15 Å²

## VYSGHQGR
Charge state: 2
  collision cross section: 325.3 ± 0.79 Å²
Charge state: 3
  collision cross section: 409 ± 1.1 Å²

## SSSAGGQGSYVPLLR
Charge state: 2
  collision cross section: 402.55 ± 0.66 Å²

## GSHGQTPSPGALPLGR
Charge state: 3
  collision cross section: 463.73 ± 0.22 Å²

## GLPGEPGPRGLLGPK
Charge state: 2
  collision cross section: 406.63 ± 0.39 Å²
Charge state: 3
  collision cross section: 459.1 ± 1.2 Å²

## VYIASSSGSTAIKK
Charge state: 2
  collision cross section: 426.35 ± 1.9 Å²
Charge state: 3
  collision cross section: 494.89 ± 3.4 Å²

## APPIDRSILPTAPR
Charge state: 2
  collision cross section: 416.59 ± 1.1 Å²
Charge state: 3
  collision cross section: 492.42 ± 3.4 Å²

## IHVQSSSDSSDEPAEKR
Charge state: 2
  collision cross section: 455.51 ± 2.8 Å²
Charge state: 3
  collision cross section: 536.3 ± 1.4 Å²

## LGVPGLPGYPGR
Charge state: 2
  collision cross section: 354.06 ± 0.41 Å²

## GERGFPGYPGPK
Charge state: 2
  collision cross section: 366.2 ± 1.3 Å²
Charge state: 3
  collision cross section: 460.83 ± 0.86 Å²

## VILENIASHEPR
Charge state: 2
  collision cross section: 417.03 ± 1.4 Å²
Charge state: 3
  collision cross section: 473.55 ± 0.22 Å²

## GYLGPEQLPDCLK
Charge state: 2
  collision cross section: 401.23 ± 0.16 Å²

## YTAILNQIPSHSSSIR
Charge state: 2
  collision cross section: 475.98 ± 0.82 Å²
Charge state: 3
  collision cross section: 510.98 ± 3.8 Å²

## SLIGKVDGTSHVTGK
Charge state: 2
  collision cross section: 430.43 ± 0.65 Å²
Charge state: 3
  collision cross section: 491.82 ± 0.22 Å²

## FGSRGGPGGGFR
Charge state: 2
  collision cross section: 358.01 ± 0.11 Å²
Charge state: 3
  collision cross section: 437.12 ± 3.8 Å²

## GRGTGEAEEEYVGPR
Charge state: 2
  collision cross section: 410.08 ± 0.96 Å²
Charge state: 3
  collision cross section: 491.56 ± 0.9 Å²

## THLAPYSDELR
Charge state: 2
  collision cross section: 381.48 ± 0.47 Å²
Charge state: 3
  collision cross section: 446.52 ± 1.7 Å²

## EEKPAVTAAPK
Charge state: 2
  collision cross section: 359.42 ± 0.68 Å²
Charge state: 3
  collision cross section: 467.02 ± 0.22 Å²

## HELQANCYEEVKDR
Charge state: 2
  collision cross section: 443.76 ± 2.4 Å²
Charge state: 3
  collision cross section: 527.87 ± 1.3 Å²

## GEPGIPAIPGIRGPK
Charge state: 2
  collision cross section: 382.37 ± 0.58 Å²
Charge state: 3
  collision cross section: 515.69 ± 0.34 Å²

## YTTNNSSEQR
Charge state: 2
  collision cross section: 353.04 ± 0.15 Å²

## VLATQPGPGRGR
Charge state: 2
  collision cross section: 368.04 ± 0.27 Å²
Charge state: 3
  collision cross section: 447.7 ± 3 Å²

## GTGRGGGGGGGGGAPR
Charge state: 2
  collision cross section: 356.62 Å²
Charge state: 3
  collision cross section: 435.15 ± 5.4 Å²

## RFGGPVHHQAQR
Charge state: 2
  collision cross section: 386.03 ± 0.46 Å²
Charge state: 3
  collision cross section: 495.72 ± 1.2 Å²

## GRGAAAAGGPQR
Charge state: 2
  collision cross section: 344.37 ± 5.2 Å²
Charge state: 3
  collision cross section: 433.7 ± 4.8 Å²

## GQDSTIAASEQQVAAR
Charge state: 2
  collision cross section: 416.79 ± 0.66 Å²
Charge state: 3
  collision cross section: 495.1 ± 0.23 Å²

## RGGFAVQAK
Charge state: 2
  collision cross section: 337.58 ± 0.46 Å²

## IYELAAGGTAVGTGLNTR
Charge state: 2
  collision cross section: 443.72 ± 1 Å²

## GGPGAPGAPGPKGESGDYK
Charge state: 2
  collision cross section: 431.57 ± 1 Å²
Charge state: 3
  collision cross section: 489.8 ± 6.1 Å²

## PGGEGPQCEKTTDVK
Charge state: 2
  collision cross section: 411.04 ± 2 Å²
Charge state: 3
  collision cross section: 465.58 ± 3.8 Å²

## TPSSFRQPFTPTSR
Charge state: 3
  collision cross section: 486.75 ± 0.79 Å²

## IYHPNVDK
Charge state: 2
  collision cross section: 337.77 ± 0.73 Å²
Charge state: 3
  collision cross section: 425.77 ± 2 Å²

## TELLPGDRDNLAIQTR
Charge state: 3
  collision cross section: 506.52 ± 0.86 Å²

## LGPPGNPGPSGSPGPK
Charge state: 2
  collision cross section: 383.56 ± 0.58 Å²
Charge state: 3
  collision cross section: 453.1 ± 18 Å²

## FDDTNPEKEEAK
Charge state: 2
  collision cross section: 396.22 ± 1.8 Å²
Charge state: 3
  collision cross section: 501.37 ± 2.2 Å²

## PRTPTAPAVNLAGAR
Charge state: 2
  collision cross section: 406.96 ± 1.8 Å²
Charge state: 3
  collision cross section: 484.37 ± 1.2 Å²

## GADFLVTEVENGGSLGSKK
Charge state: 2
  collision cross section: 494.06 ± 6.8 Å²
Charge state: 3
  collision cross section: 535.68 ± 1.1 Å²

## LAEEENKAK
Charge state: 2
  collision cross section: 348.48 ± 1.2 Å²
Charge state: 3
  collision cross section: 421.19 ± 4.7 Å²

## TTSYPTPRPYPKPAPSSGK
Charge state: 3
  collision cross section: 522.76 ± 0.86 Å²

## GEAGPTGPQGEPGVR
Charge state: 2
  collision cross section: 385.03 ± 0.4 Å²

## LFVGGIKEDTEEHHLR
Charge state: 2
  collision cross section: 486.85 ± 3.6 Å²
Charge state: 3
  collision cross section: 544.82 ± 2.6 Å²

## SPSDSGYSYETIGKTTK
Charge state: 2
  collision cross section: 441.25 ± 2.3 Å²
Charge state: 3
  collision cross section: 517.54 ± 3.3 Å²

## PSVGSQSNQAGQGKR
Charge state: 2
  collision cross section: 422.59 ± 2.3 Å²
Charge state: 3
  collision cross section: 465.3 ± 4.2 Å²

## VYVGNLGTGAGK
Charge state: 2
  collision cross section: 357.65 ± 0.15 Å²

## YEATSVQQK
Charge state: 2
  collision cross section: 342.24 ± 1.4 Å²

## SLKLNTAEDAK
Charge state: 2
  collision cross section: 372.65 ± 1.5 Å²
Charge state: 3
  collision cross section: 469.12 ± 5.3 Å²

## AAINQKLIETGER
Charge state: 2
  collision cross section: 409.65 ± 1.4 Å²
Charge state: 3
  collision cross section: 476.29 ± 7.6 Å²

## SRGAIISQYYNR
Charge state: 2
  collision cross section: 400.77 ± 1.6 Å²
Charge state: 3
  collision cross section: 465.8 ± 0.66 Å²

## LQAAYAGDKADDIQK
Charge state: 2
  collision cross section: 429.74 ± 2.5 Å²
Charge state: 3
  collision cross section: 497.53 ± 4.8 Å²

## LEEVTGKLQVAR
Charge state: 2
  collision cross section: 400.35 ± 5.3 Å²
Charge state: 3
  collision cross section: 475.59 ± 4.3 Å²

## LGPPGNPGPSGSPGPKGQK
Charge state: 2
  collision cross section: 422.18 ± 1.4 Å²
Charge state: 3
  collision cross section: 483.14 ± 1.2 Å²

## LLEEEDSKLK
Charge state: 2
  collision cross section: 382.28 ± 0.34 Å²
Charge state: 3
  collision cross section: 444.51 ± 4.2 Å²

## SVSSSSYR
Charge state: 2
  collision cross section: 308.48 ± 0.73 Å²

## PLPVALQTRLAK
Charge state: 2
  collision cross section: 398.31 ± 0.59 Å²
Charge state: 3
  collision cross section: 471.01 ± 3.4 Å²

## VLPSITTEILK
Charge state: 2
  collision cross section: 373.13 ± 0.14 Å²

## RGFGFGGFAISAGK
Charge state: 2
  collision cross section: 395.08 ± 0.89 Å²
Charge state: 3
  collision cross section: 486.34 ± 2.6 Å²

## SFDEVEGVFGRGGGR
Charge state: 2
  collision cross section: 414.68 ± 0.96 Å²
Charge state: 3
  collision cross section: 509.8 ± 1.2 Å²

## FGTINIVHPKLGSYTK
Charge state: 2
  collision cross section: 468.97 ± 3 Å²
Charge state: 3
  collision cross section: 531.6 ± 4.8 Å²

## VETFSGVYK
Charge state: 2
  collision cross section: 332.43 ± 0.59 Å²

## LQLEIDQKK
Charge state: 2
  collision cross section: 366.48 ± 1.6 Å²
Charge state: 3
  collision cross section: 427.93 ± 3.7 Å²

## TPLTHALPGLSEQEGQK
Charge state: 3
  collision cross section: 495.4 ± 0.86 Å²

## SGFGKFER
Charge state: 2
  collision cross section: 339.56 ± 3 Å²

## FEGAIYR
Charge state: 2
  collision cross section: 317.08 ± 0.15 Å²

## GPPGPPGR
Charge state: 2
  collision cross section: 295.47 ± 0.78 Å²

## AAHGRGALAEAAR
Charge state: 2
  collision cross section: 390.08 ± 0.35 Å²
Charge state: 3
  collision cross section: 476.13 ± 1.3 Å²
